Source: paper PMC3644619 (Gene, 2008)

What was measured:
[1] = biological target: SF1 (steroidogenic factor 1) (UniProt Q04752 1-461); test: two-hybrid
[2] = biological target: T1, hormone-binding domain (HBD) of ERR1 (UniProt P11474 1-423); test: two-hybrid
T1 sequence (looked up): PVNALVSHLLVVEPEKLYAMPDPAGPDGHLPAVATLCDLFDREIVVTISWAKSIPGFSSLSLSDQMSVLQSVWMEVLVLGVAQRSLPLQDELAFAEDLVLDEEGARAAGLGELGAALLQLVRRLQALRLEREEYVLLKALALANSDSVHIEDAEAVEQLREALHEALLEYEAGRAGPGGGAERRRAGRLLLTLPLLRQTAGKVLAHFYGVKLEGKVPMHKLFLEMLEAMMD

SF1 (steroidogenic factor 1), sequence (Q04752 whole entry, the tested form may be a part): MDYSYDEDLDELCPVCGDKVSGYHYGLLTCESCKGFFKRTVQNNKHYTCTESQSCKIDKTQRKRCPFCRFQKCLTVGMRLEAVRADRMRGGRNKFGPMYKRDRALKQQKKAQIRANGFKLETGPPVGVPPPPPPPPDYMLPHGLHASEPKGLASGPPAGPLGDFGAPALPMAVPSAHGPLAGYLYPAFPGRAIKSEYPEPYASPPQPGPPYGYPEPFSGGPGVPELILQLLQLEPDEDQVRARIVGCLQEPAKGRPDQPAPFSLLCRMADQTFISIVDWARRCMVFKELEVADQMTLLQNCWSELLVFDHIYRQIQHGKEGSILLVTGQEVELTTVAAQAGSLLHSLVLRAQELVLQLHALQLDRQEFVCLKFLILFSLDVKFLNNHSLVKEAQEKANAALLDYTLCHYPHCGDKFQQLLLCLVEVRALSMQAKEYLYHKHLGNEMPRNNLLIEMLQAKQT

B1: PNRC1d (natural protein)
chain: not shown
fold increase of affinity compared to fl PNRC (two-hybrid β-galactosidase) [1]: > 10 fold | fold increase of affinity compared to fl PNRC (two-hybrid β-galactosidase) [2]: > 10 fold
